Reference: the DeepSol protein solubility set

Test: soluble on expression in E. coli; label from the status in PepcDB or PDB records

| Sequence | soluble on expression in E. coli |
| --- | --- |
| MISLFSPCHLSAALLISALSIVPTNAAPSPVSSPFTVNATVLTGCVLGGGATDSSNFGSINFGNITSLATAINATSGLNAGTITIQCNGNPSVTLALNSGANMTGNISAGRHLLNSSTGEYLLYQIYQNSPRTLIWGDGSNGGATQVIATDGTLQQVILYAQLFASNTQPTAGVYLDTLLVTVTY | not soluble |
| MDMTDQAFFKYVRNFNEYQKRSMFGGIGLFSDDAMFALVSNDCCYLRGGNGLDEEFTLLNCEKYKHVKKQTTATVNYYDVTDLFESGFTGLDDLLRKSIDCSIKERKYQKSSASKRLRDLPNMQLTLERMVKKAGIDDVETFLELGPVEVFNKVRVAYGNDVDVKLLWKFAGAIDGVHWKLIQEPRKKQLLALCE | not soluble |
| MGRSATPEGDPARTMELLWGGGSTPISRPRNGKPGLTLDRIVETAVSVADAEGLDAVSMRRLASELGAGAMSLYTHVPGKTELVEVMLDRALSTLEPADDADEGWRERLAAAAHDYFHLLCAHPWMLGVVALSRPVLGPGGMAKYERELRAVEGLGLSDLDMDSVVTLLDSFVAGAARAAVDAAALAAQGEADSEWWQRVAPHFEKVFDPDRFPLAARVGASAGEHHDAAYVPAHAFEFGLTRLLDGVGALIVDGGTGGE | not soluble |
| MSLTTSHFIPFPREMVWDWHTRKGAVARLTPPFIPLNPITQAERLADGTTIFSLPAGLKWVARHDLSGFLNGSRFTDVCLTAPVKALANWRHVHNFVDQDGGTLITDSVSTRLPASTLTGMFAYRQTQLIEDLKFLSRTSTLFDGSPLTVAITGSRGLVGRALTAQLQTGGHEVIQLVRKEPKPGKRFWDPLNPASDLLDGADVLVHLAGEPIFGRFNDSHKEAIRESRVLPTKFLAELVAESTQCTTMISASAVGFYGHDRGDEILTEESESGDDFLAEVCRDWEHATAPASDAGKRVAFIRTGVALSGRGGMLPLLKTLFSTGLGGKFGDGTSWFSWIAIDDLTDIYYRAIVDAQISGPINAVAPNPVSNADMTKILATSMHRPAFIQIPSLGPKILLGSQGAEELALASQRTAPAALENLSHTFRYTDIGAAIAHELGYEQLADFAQQQEIEAERKQERAELKAAKKIAKKAPVLEESPTNLEDPEEVEQSILSSILNFRRKRNDLEHHHHHH | soluble |
| MTALTEGAKLFEKEIPYITELEGDVEGMKFIIKGEGTGDATTGTIKAKYICTTGDLPVPWATILSSLSYGVFCFAKYPRHIADFFKSTQPDGYSQDRIISFDNDGQYDVKAKVTYENGTLYNRVTVKGTGFKSNGNILGMRVLYHSPPHAVYILPDRKNGGMKIEYNKAFDVMGGGHQMARHAQFNKPLGAWEEDYPLYHHLTVWTSFGKDPDDDETDHLTIVEVIKAVDLETYR | soluble |
| MTLLGTALRPAATRVMLLGSGELGKEVAIECQRLGVEVIAVDRYADAPAMHVAHRSHVINMLDGDALRRVVELEKPHYIVPEIEAIATDMLIQLEEEGLNVVPCARATKLTMNREGIRRLAAEELQLPTSTYRFADSESLFREAVADIGYPCIVKPVMSSSGKGQTFIRSAEQLAQAWKYAQQGGRAGAGRVIVEGVVKFDFEITLLTVSAVDGVHFCAPVGHRQEDGDYRESWQPQQMSPLALERAQEIARKVVLALGGYGLFGVELFVCGDEVIFSEVSPRPHDTGMVTLISQDLSEFALHVRAFLGLPVGGIRQYGPAASAVILPQLTSQNVTFDNVQNAVGADLQIRLFGKPEIDGSRRLGVALATAESVVDAIERAKHAAGQVKVQG | soluble |
| MKRVLVAMSGGVDSSVAALLLKEAGYEVVGAMMRFWPDLPPPSLEAGKPRAWESCCTPDAAYEARRVADRLGIPFYLLDYREVFEEEIISPFLQDYAQGRTPNPCARCNTFVKFGALLKQARRLGLDYVATGHYVRKEGLALLRGLDPHKDQTYFLWGTPKEALPHLLFPVGGLTKPEVRALAEKAGLPTARRPESQNLCFVAGDLKGFLKERLKPRPGPLVDALTGEVVGEHEGASLYTLGQRKGLGLYKTHLERYVVGVDPERNVVYVGPKEACYFEGLEGEGLNLLAELPEEVEVQVRYRTPPVRAKVESLSPLRLRFAHPVFAVTPGQSAVFYRGERLLGGAVIRRGLYNLAGLEDPRALTFS | soluble |
| MGSDKIHHHHHHMNEFIASIKSATASLHTQLEQSEISNVIMSQLVTEKAYAEYLSRIQCMHEDIEKHTFPIIHTIIKDTAQRTKSTAIAADLDQLKYASAVNKTFLDAAHSPDLNFNLGLMYVTEGSVLGGQVILKNIKKQLGEDIASRFLNVYGQQTGHLWRSFLIQLSEYQSTLSEKEKMTIIDGAKYGFERVYSILM | not soluble |
| MGSDKIHHHHHHMSIDNVSGTSSNTGNVNGSKRAAGSGATETGQSVKGSSNLGKDEFLKLLVAQLKNQDPMSPQQNGEFIAQLAQFSTVEGVQSLNKSMESILSNYQSSQALQASSLVGRKVIVATDKSVVDTKDTFKASLNLPVSSSNVWVNVYDDKGTVVNRINLGQQAAGSVSFMWDGKDSSGNIMPPGTYKFEAQTSIDGKTYGLQTYLPANVDSVTLGQNGGELMLNLAGLGSIALSKVQIIGQ | not soluble |
| MSLNYTELEENIKKNNIENVYIMCGFNEKLMKESINKILKKSISQDFESLNYSVFDGNEVEFEDILNACETVPFMSEKRMVVVYRAGFLNDNSSGSNKNSDKLIKDIEKYVPNVPKHCILVMYYVFDNTREKPSYRVKKFDKKVCVVEFSKLRGMQFQKKVKDVFAEKGKQIGKTELNYFCSRVENNMDIVYNEIEKLCCYTLEKEITKESIDNLLQPNETDDIFNLVDYISQSKPEMAITVLNEIMYKGVKANSILYMVERQFKLMLSIKIGIENKQSKEALVKELKLNPYVCDKMINECKRFTMKKILKSLDICLRTEKELKSVSGDPKFKMEVLIINLAIEGHHHHHH | soluble |
| MKPLSGLKVLDLSRVLAGPLCTMILADLGAEVVKVEPPWGDETRGWGPPFVEGESAYFLAVNRGKRSVALDLKRPEGQEAVRRLAQKADVLVENFKTGDLRRFGLDYESLKPLNPRLIYLSITGFGHTGPRAKEPGYDAALQGYTGIMSVTGEPEGPPMKVGVAWIDVMTGMMGALAVLAALWERERSGLGQHIDLSLFDVGLFALANLGESFLLTGKPPKRLGNAHAQIVPYGAFPAEDGWLVLAVGNDEQFARLCQVVGLPDLARRFPTNALRVEHREEVVEALSRALKARSRAHWLERFKEAGVPAAPVNDLKEAFQDPQARARGAVWTLPHPLLGALPTLANPLRFLSRTPAGPGLPPPLLGEHTREVLLEAGYTPEAVADLVQRGIAKEAPPASQRRPDRGA | soluble |
| SNAAEHVRLATTTSTYHSGLLDYLLPQFEKDTGYKVDVIAAGTGKALKMGENGDVDLVMTHAPKAEGTFVEKGYGVLPRKLMYNDFVIVGPKADPAKIKDDESVLDVFKEIANKNATFISRGDDSGTHKKEMGFWAQTKIEPNFGGYRSVGQGMGPTLNMASEMQGYTMSDRGTWLAYQNKLDLEILFQGDEKLFNPYQVILVNPERYPTINYQGAKAFSDWLVNPRGQELINGFRL | soluble |
| SLSMKLLIADDEDTIRNGIAKYIKLHTDRFSQIYLAENGQQALDIILQYQPDMMLLDVQMPLKTGLEVLQEAQKLSLVPKTIILSGYDDFEYARKALRYGAKDYLLKPCRSSEILEAINKLVQEQLGTKEDVECEEGTGIHYIVSSAIEYMEEYYHKNLTLIEVSNKVGITAGYLSTLFTQNMNCGFVEYLNKIRIKHACSYLEQNYFKTYEIAYKVGFKDEKYFSKVFKKETGITPYEYRRDHSIGKNIRTEG | soluble |
| MAHHHHHHMSRLMPHYSKGKTAFLCVDLQEAFSKRIENFANCVFVANRLARLHEVVPENTKYIVTEHYPKGLGRIVPEITLPKTAHLIEKTRFSCVVPQVEELLEDVDNAVVFGIEGHACILQTVADLLDMNKRVFLPKDGLGSQKKTDFKAAIKLMSSWGPNCEITTSESILLQMTKDAMDPNFKRISKLLKEEPPIPL | soluble |
